Laboratory results: publication PMC2172719

Biological target: Ufd1–Npl4ΔZF complex (UniProt Q9ES53)
Assay: co-IP

percent of the input material bound: < 5%
Substance: polyubiquitin chains with lysine 63 linkages (from UniProt P0CG53 1-76)
